In US20090203580:

Key:
[1] = test system: heat-inactivated alpha-1 antitrypsin
[2] = test system: human alpha-1 antitrypsin (native, not heat-inactivated; clinical grade, e.g. Aralast)

elastase (e.g., Sigma), species not stated
elastase activity: hydrolysis of N-Succinyl-Ala-Ala-Ala-p-nitroanalide, absorbance at 410 nm [1]: combining HIAAT with elastase produced a curve similar to that of elastase alone | elastase activity: hydrolysis of N-Succinyl-Ala-Ala-Ala-p-nitroanalide, absorbance at 410 nm [2]: Combining native (NOT heat-inactivated) AAT ablated elastase processing of the N-Succinyl-Ala-Ala-Ala-p-nitroanalide substrate and blocked the increase in A410 nm
